The text below walks through data of US20230212217A1.

The experiment addresses full domain protein A ligand (immobilised on resin) (UniProt P38507). Description: protein A affinity chromatography, pH gradient elution, POROS MabCapture A Select (Example 5-4).

“GLP-1-Fc (from UniProt P01275 98-128) (Fc fusion)” displayed a Peak 1 End pH (elution) of 3.95 pH and a Peak 1 start pH (elution) of 4.17 pH.
